The source of these data is patent publication US20030114379A1 (Human Genome Sciences, published 2003).

Data set [1] deals with the molecule itself. The data set can be described thus: sedimentation equilibrium analytical ultracentrifugation for self-association, at several pH values and ionic strengths (Table 10, State 'M'). The method, then:
Sedimentation Equilibrium. Analytical ultracentrifugation experiments were performed on a Beckman model XL-A ultracentrifuge at 20° C. at rotor speeds 23,000, 28,000 and 40,000 rpm. Experiments were carried out at two different starting concentrations in different buffers and ionic strength to study their effect on dimerization (Table 10). Absorbance was measured at 280 nm and the data was collected as an average of five successive radial scans using a 0.003 cm step size. The data was fitted to the following equation: […]
Sedimentation equilibrium. Chemokine ability to associate is dependent on solution conditions such as pH and ionic strength. The association properties of the MPIF-1 and the full length MPIF-1 were studied using ultracentrifugation methods at different pH and ionic strengths. […] The monomeric state of MPIF-1 is consistent with the NMR structure and also from the calculation of the correlation time from ¹⁵N dynamics.

The target of data set [2] is cell surface receptor for MIP-1α (on human monocytes) (human). The data set can be described thus: cell-based or functional assay.

B1: MPIF-1Δ23 (truncated human MPIF-1 lacking the 23 N-terminal amino acids of the mature protein, with an N-terminal Met; 77 amino acids, 8.85 kDa) (ligand)
chain: MDRFHATSADCCISYTPRSIPCSLLESYFETNSECSKPGVIFLTKKGRRFCANPSDKQVQVCMRMLKLDTRIKTRKN
notes: Delta 23
For the molecule B1, in data set [1], the binding result is “no binding”.

B2: MPIF-1 Mutant-1 (the 'mature' MPIF-1 for E. coli expression, wild type with an N-terminal methionine) (ligand)
chain: MRVTKDAETEFMMSKLPLENPVLLDRFHATSADCCISYTPRSIPCSLLESYFETNSECSKPGVIFLTKKGRRFCANPSDKQVQVCMRMLKLDTRIKTRKN
Turning to B2, in data set [2], the “intracellular calcium mobilization in human monocytes, activity relative to wild type MPIF-1” value is roughly 2 fold.
